Biological target: T1, Tt-Slx1 E79Q-Slx4CCD3 (Thielavia terrestris, UniProt G2QV68;G2RCY5 1-324;834-936, E79Q)
T1 sequence 1: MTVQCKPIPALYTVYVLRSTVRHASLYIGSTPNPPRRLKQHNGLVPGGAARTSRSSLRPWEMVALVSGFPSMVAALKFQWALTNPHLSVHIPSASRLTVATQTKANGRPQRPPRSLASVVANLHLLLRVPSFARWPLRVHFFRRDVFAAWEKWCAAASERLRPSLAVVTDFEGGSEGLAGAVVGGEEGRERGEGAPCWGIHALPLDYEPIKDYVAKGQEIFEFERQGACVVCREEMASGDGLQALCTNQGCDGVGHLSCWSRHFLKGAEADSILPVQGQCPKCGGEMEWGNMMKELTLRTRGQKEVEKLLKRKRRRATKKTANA
T1 sequence 2: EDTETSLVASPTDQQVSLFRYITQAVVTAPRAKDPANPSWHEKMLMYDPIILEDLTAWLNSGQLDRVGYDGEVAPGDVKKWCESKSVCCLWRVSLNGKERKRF
Assay: X-ray crystallography; Zn2+ in RING domain; 0.2 M CaCl2, 5 mM EDTA, pH 6.0; 2.7 A; Fluorescence anisotropy: 20 mM HEPES pH 7.5, 2.5 mM CaCl2, 100 mM NaCl, 0.1 mg/ml BSA, 25 C; 25 nM DNA, 0-500 nM protein
Conditions: protein: recombinant; tags: N-terminal 6xHis on Slx1; Slx4CCD3 untagged; chain copies: 2;2; self-annealed splayed arm; single G-A mismatch and unpaired bases in crystal

B1: self-annealing splayed-arm crystallization DNA (structured_DNA)
DNA: CAATCGGCAATGACCTTTGGTCATTCGGCAGAT
Q: Does B1 bind?
A: binds

Reference: paper PMC6902002, “Recognition and processing of branched DNA substrates by Slx1–Slx4 nuclease”
